Measurements: PMC5696371, “The HSF1–PARP13–PARP1 complex facilitates DNA repair and promotes mammary tumorigenesis” (Nature Communications, 2017)

Biological target: T1, hPARP13-His (human, UniProt Q7Z2W4 1-902)
T1 construct: human PARP13 cDNA in pET21a, His tag at the C terminus; also called His-tagged hPARP13; source: E. coli, purified (Ni Sepharose 6 Fast Flow); not shown: His, C-terminal, kept
Test: pull-down; purified GST fusion proteins and purified hPARP13-His mixed in NT buffer (50 mM Tris-HCl pH 7.5, 150 mM NaCl, 1 mM EDTA, 0.5% NP40) for 1 h at 4 °C, then glutathione-sepharose beads 2 h at 4 °C; immunoblotting
Settings: both partners purified

T1 sequence (Q7Z2W4 whole entry): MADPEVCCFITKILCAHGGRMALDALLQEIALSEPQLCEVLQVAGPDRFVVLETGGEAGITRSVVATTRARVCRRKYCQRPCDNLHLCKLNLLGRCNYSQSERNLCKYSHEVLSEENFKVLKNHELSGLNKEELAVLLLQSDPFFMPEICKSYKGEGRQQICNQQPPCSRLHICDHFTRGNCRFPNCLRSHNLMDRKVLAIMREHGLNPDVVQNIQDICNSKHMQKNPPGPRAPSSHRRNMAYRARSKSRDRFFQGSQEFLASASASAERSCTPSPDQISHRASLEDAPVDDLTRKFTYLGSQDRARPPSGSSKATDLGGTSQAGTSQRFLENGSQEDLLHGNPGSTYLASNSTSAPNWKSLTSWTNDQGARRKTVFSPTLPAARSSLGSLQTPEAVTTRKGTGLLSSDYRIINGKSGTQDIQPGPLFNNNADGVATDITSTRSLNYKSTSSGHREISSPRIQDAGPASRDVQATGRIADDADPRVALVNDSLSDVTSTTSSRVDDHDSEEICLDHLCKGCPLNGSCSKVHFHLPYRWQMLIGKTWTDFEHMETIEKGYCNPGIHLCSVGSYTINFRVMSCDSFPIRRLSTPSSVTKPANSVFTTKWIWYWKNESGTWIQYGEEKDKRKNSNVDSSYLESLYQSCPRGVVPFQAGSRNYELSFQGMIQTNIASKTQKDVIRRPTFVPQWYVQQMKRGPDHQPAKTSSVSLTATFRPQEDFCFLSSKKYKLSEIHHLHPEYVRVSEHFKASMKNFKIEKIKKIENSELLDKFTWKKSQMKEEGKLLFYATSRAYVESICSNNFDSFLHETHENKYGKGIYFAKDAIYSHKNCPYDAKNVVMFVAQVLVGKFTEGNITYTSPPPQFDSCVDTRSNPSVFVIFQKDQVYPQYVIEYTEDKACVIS

binding result: binds
B1: GST-hHSF1 (natural protein, human, UniProt Q00613 1-529, looked up)
chain: MDLPVGPGAAGPSNVPAFLTKLWTLVSDPDTDALICWSPSGNSFHVFDQGQFAKEVLPKYFKHNNMASFVRQLNMYGFRKVVHIEQGGLVKPERDDTEFQHPCFLRGQEQLLENIKRKVTSVSTLKSEDIKIRQDSVTKLLTDVQLMKGKQECMDSKLLAMKHENEALWREVASLRQKHAQQQKVVNKLIQFLISLVQSNRILGVKRKIPLMLNDSGSAHSMPKYSRQFSLEHVHGSGPYSAPSPAYSSSSLYAPDAVASSGPIISDITELAPASPMASPGGSIDERPLSSSPLVRVKEEPPSPPQSPRVEEASPGRPSSVDTLLSPTALIDSILRESEPAPASVTALTDARGHTDTEGRPPSPPPTSTPEKCLSVACLDKNELSDHLDAMDSNLDNLQTMLSSHGFSVDTSALLDLFSPSVTVPDMSLPDLDSSLASIQELLSPQEPPRPPEAENSSPDSGKQLVHYTAQPLFLLDPGSVDTGSNDLPVLFELGEGSYFSEGDGFAEDPTISLLTGSEPPKAKDPTVS
notes: human HSF1 fused to GST; the legend marks 'full-length GST-fusion proteins'; source: E. coli, purified (Glutathione Sepharose 4B)
